Measured values from patent US20240084039A1.

Target: pre-existing anti-drug antibodies (ADA) present in human sera
Experiment: ELISA pre-existing ADA binding assay, confirmatory setup, test molecule coated, 20 human sera

Row | Binder | % positives of total tested serum samples [%] | No of positive serum samples above 30% CCP (serum samples)
1 | PRO2925 (scFv) scFv: DIQMTQSPSSLSASVGDRVTITCQASESIYSSLAWYQQKPGKAPKLLIYLASTLASGVPSRFSGSGSGTDFTLTISSLQPEDFATYYCQSTDYTTSTHRNSFGTGTKVTVLGGGGGSGGGGSGGGGSGGGGSEVQLVESGGGSVQPGGSLRLSCAASGFSFSTTYYMCWVRQAPGKGLEWIGCTNTASSVRTYYATWAKGRFTISRDNSKNTVYLQMNSLRAEDTATYYCARDMGFADYALNLWGQGTQVTVSS | 25 | 5
2 | PRO2921 (scFv) scFv: DIQMTQSPSSLSASVGDRVTITCQASESIYSSLAWYQQKPGKAPKLLIYLASTLASGVPSRFSGSGSGTDFTLTISSLQPEDFATYYCQSTDYTTSTHRNSFGTGTKVTVLGGGGGSGGGGSGGGGSGGGGSEVQLVESGGGLVQPGGSLRLSCAASGFSFSTTYYMCWVRQAPGKGLEWIGCTNTASSVRTYYATWAKGRFTISRDNSKNTVYLQMNSLRAEDTATYYCARDMGFADYALNLWGQGTQVTVSS | 55 | 11
3 | PRO2990 (scFv) scFv: DIQMTQSPSSLSASVGDRVTITCQASESIYSSLAWYQQKPGKAPKLLIYLASTLASGVPSRFSGSGSGTDFTLTISSLQPEDFATYYCQSTDYTTSTHRNSFGTGTKVTVLGGGGGSGGGGSGGGGSGGGGSEVQLVESGGGSVQPGGSLRLSCAASGFSFSTTYYMCWVRQAPGKGLEWIGCTNTASSVRTYYATWAKGRFTISRDNSKNTVYLQMNSLRAEDTATYYCARDMGFADYALNLWGQGTTVTVSS | 25 | 5
4 | PRO2924 (scFv) scFv: DIQMTQSPSSLSASVGDRVTITCQASESIYSSLAWYQQKPGKAPKLLIYLASTLASGVPSRFSGSGSGTDFTLTISSLQPEDFATYYCQSTDYTTSTHRNSFGTGTKVTVLGGGGGSGGGGSGGGGSGGGGSEVQLVESGGGLVQPGGSLRLSCAASGFSFSTTYYMCWVRQAPGKGLEWIGCTNTASSVRTYYATWAKGRFTISRDNSKNTVYLQMNSLRAEDTAVYYCARDMGFADYALNLWGQGTQVTVSS | 75 | 15
5 | PRO2741 (protein) chain 1: DIQMTQSPSSLSASVGDRVTITCQASESIYSSLAWYQQKPGKAPKLLIYLASTLASGVPSRFSGSGSGTDFTLTISSLQPEDFATYYCQSTDYTTSTHRNSFGTGTKVTVLGGGGGSGGGGSGGGGSGGGGSEVQLVESGGGRVQPGGSLRLSCAASGFSFSTTYYMCWVRQAPGKGLEWIGCTNTASSVRTYYATWAKGRFTISRDNSKNTVYLQMNSLRAEDTATYYCARDMGFADYALNLWGQGTQVTVSSGGGGSGGGGSEVQLVESGGGRVQPGGSLRLSCAASGFSLSSYDMSWVRQAPGKGLAWIGASYASGPTYYASWAKGRFTISRDNSKNTVYLQMNSLRAEDTATYFCARGGWTGTSHSNIWGQGTQVTVSSGGGSGGGSGGGSGEVQLVESGGGRVQPGGSLRLSCAASGFSLSSYAMNWVRQAPGKCLEWIGHINAGDIAYYATWAKGRFTISRDNSKNTVYLQMNSLRAEDTATYFCARGAGGFSTGPFKLWGQGTQVTVSS chain 2: DIQMTQSPSSLSASVGDRVTITCQASESIYSSLAWYQQKPGKAPKLLIYLASTLASGVPSRFSGSGSGTDFTLTISSLQPEDFATYYCQSTDYTTSTHRNSFGTGTKVTVLGGGGGSGGGGSGGGGSGGGGSEVQLVESGGGRVQPGGSLRLSCAASGFSFSTTYYMCWVRQAPGKGLEWIGCTNTASSVRTYYATWAKGRFTISRDNSKNTVYLQMNSLRAEDTATYYCARDMGFADYALNLWGQGTQVTVSSGGGGSGGGGSAFELTQSPSSLSASVGDRVTITCQASESINSRLAWYQQKPGQPPKLLIYDASDLTSGVPSRFSGSGSGTDFTLTISSLQPEDFATYYCQGYGGSSTTTFGCGTKLTVLGGGSGGSDIQMTQSPSSLSASVGDRVTITCQSSQSVFSNNYLAWFQQKPGQSPKRLIYSASTLASGVPSRFSGSGSGTDFTLTISSLQPEDFATYYCLGSYACSSADCYVFGTGTKVTVLG | 15 | 3
6 | PRO2660 (protein) chain 1: DIQMTQSPSSLSASVGDRVTITCQASESIYSSLAWYQQKPGKAPKLLIYLASTLASGVPSRFSGSGSGTDFTLTISSLQPEDFATYYCQSTDYTTSTHRNSFGTGTKVTVLGGGGGSGGGGSGGGGSGGGGSEVQLVESGGGLVQPGGSLRLSCAASGFSFSTTYYMCWVRQAPGKGLEWIGCTNTASSVRTYYATWAKGRFTISRDNSKNTVYLQMNSLRAEDTAVYYCARDMGFADYALNLWGQGTLVTVSSGGGGSGGGGSEVQLVESGGGLVQPGGSLRLSCAASGFSLSSYDMSWVRQAPGKGLAWIGASYASGPTYYASWAKGRFTISRDNSKNTVYLQMNSLRAEDTATYFCARGGWTGTSHSNIWGQGTLVTVSSGGGSGGGSGGGSGEVQLVESGGGLVQPGGSLRLSCAASGFSLSSYAMNWVRQAPGKCLEWIGHINAGDIAYYATWAKGRFTISRDNSKNTVYLQMNSLRAEDTAVYFCARGAGGFSTGPFKLWGQGTLVTVSS chain 2: DIQMTQSPSSLSASVGDRVTITCQASESIYSSLAWYQQKPGKAPKLLIYLASTLASGVPSRFSGSGSGTDFTLTISSLQPEDFATYYCQSTDYTTSTHRNSFGTGTKVTVLGGGGGSGGGGSGGGGSGGGGSEVQLVESGGGLVQPGGSLRLSCAASGFSFSTTYYMCWVRQAPGKGLEWIGCTNTASSVRTYYATWAKGRFTISRDNSKNTVYLQMNSLRAEDTAVYYCARDMGFADYALNLWGQGTLVTVSSGGGGSGGGGSAFELTQSPSSLSASVGDRVTITCQASESINSRLAWYQQKPGQPPKLLIYDASDLTSGVPSRFSGSGSGTDFTLTISSLQPEDFATYYCQGYGGSSTTTFGCGTKLTVLGGGSGGSDIQMTQSPSSLSASVGDRVTITCQSSQSVFSNNYLAWFQQKPGQSPKRLIYSASTLASGVPSRFSGSGSGTDFTLTISSLQPEDFATYYCLGSYACSSADCYVFGTGTKVTVLG | 30 | 6
7 | PRO2668 (protein) AFELTQSPSSLSASVGDRVTITCQASESINSRLAWYQQKPGQPPKLLIYDASDLTSGVPSRFSGSGSGTDFTLTISSLQPEDFATYYCQGYGGSSTTTFGCGTKLTVLGGGGGSEVQLVESGGGRVQPGGSLRLSCAASGFSLSSYDMSWVRQAPGKGLAWIGASYASGPTYYASWAKGRFTISRDNSKNTVYLQMNSLRAEDTATYFCARGGWTGTSHSNIWGQGTQVTVSSGGGGSGGGGSGGGGSGGGGSDIQMTQSPSSLSASVGDRVTITCQSSQSVFSNNYLAWFQQKPGQSPKRLIYSASTLASGVPSRFSGSGSGTDFTLTISSLQPEDFATYYCLGSYACSSADCYVFGTGTKVTVLGGGGGSEVQLVESGGGRVQPGGSLRLSCAASGFSLSSYAMNWVRQAPGKCLEWIGHINAGDIAYYATWAKGRFTISRDNSKNTVYLQMNSLRAEDTATYFCARGAGGFSTGPFKLWGQGTQVTVSSGGGGSGGGGSAQQLTQSPSSLSASVGDRVTITCQASQNVWNNNYLSWFQQKPGKPPKLLIVTASTLASGVSSRFSGSGSGTDFTLTISSLQPEDFATYYCAGGFSGEIRAFGCGTKVTVLGGGGGSGGGGSGGGGSGGGGSQSQLVESGGGRVQPGGSLRLSCAVSGLSLSRNAMSWVRQAPGKCLEWIGIILTSGSTYYASWAKGRFTISKDNSKNTVYLQMNSLRAEDTATYFCVRGIASSSLKSFWGQGTQVTVSS | 0 | 0
8 | PRO2926 (scFv) scFv: DIQMTQSPASLSASVGDRVTITCQASQSIGTYLAWYQQKPGKPPKLLIYRAFILASGVPSRFSGSGSGTDFTLTISSLQPEDFATYYCQSNFYSDSTTIGPNAFGTGTKVTVLGGGGGSGGGGSGGGGSGGGGSEVQLVESGGGSVQPGGSLRLSCAASGFSFNSDYWIYWVRQAPGKGLEWIASIYGGSSGNTQYASWAQGRFTISRDNSKNTVYLQMNSLRAEDTATYFCARGYVDYGGATDLWGQGTQVTVSS | 40 | 8
9 | PRO2984 (scFv) scFv: DIQMTQSPASLSASVGDRVTITCQASQSIGTYLAWYQQKPGKPPKLLIYRAFILASGVPSRFSGSGSGTDFTLTISSLQPEDFATYYCQSNFYSDSTTIGPNAFGTGTKVTVLGGGGGSGGGGSGGGGSGGGGSEVQLVESGGGSVQPGGSLRLSCAASGFSFNSDYWIYWVRQAPGKGLEWIASIYGGSSGNTQYASWAQGRFTISRDNSKNTVYLQMNSLRAEDTATYFCARGYVDYGGATDLWGQGTTVTVSS | 25 | 5
10 | PRO2909 (scFv) scFv: DIQMTQSPASLSASVGDRVTITCQASQSIGTYLAWYQQKPGKPPKLLIYRAFILASGVPSRFSGSGSGTDFTLTISSLQPEDFATYYCQSNFYSDSTTIGPNAFGTGTKVTVLGGGGGSGGGGSGGGGSGGGGSEVQLVESGGGLVQPGGSLRLSCAASGFSFNSDYWIYWVRQAPGKGLEWIASIYGGSSGNTQYASWAQGRFTISRDNSKNTVYLQMNSLRAEDTAVYFCARGYVDYGGATDLWGQGTQVTVSS | 50 | 10
11 | PRO2906 (scFv) scFv: DIQMTQSPASLSASVGDRVTITCQASQSIGTYLAWYQQKPGKPPKLLIYRAFILASGVPSRFSGSGSGTDFTLTISSLQPEDFATYYCQSNFYSDSTTIGPNAFGTGTKVTVLGGGGGSGGGGSGGGGSGGGGSEVQLVESGGGLVQPGGSLRLSCAASGFSFNSDYWIYWVRQAPGKGLEWIASIYGGSSGNTQYASWAQGRFTISRDNSKNTVYLQMNSLRAEDTATYFCARGYVDYGGATDLWGQGTQVTVSS | 95 | 19
